Literature values as cited in paper PMC8297464.

Tests used:
ACE2 (Homo sapiens) = ACE2 (Homo sapiens) (UniProt Q9BYF1)
[1] = biological target: Spike RBD RBD (SARS-CoV-2) (UniProt P0DTC2)

Chain of Human defensin 5 (Q01523 63-94): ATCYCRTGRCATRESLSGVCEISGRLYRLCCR

Substance	Kd (ACE2 (Homo sapiens)) [µM]	Kd [1] [µM]
Human defensin 5 (from UniProt Q01523)	0.0393	
SBP1 α1 helix 23-mer (from UniProt Q9BYF1)		0.047
